Results: PMC3695516

How the values were obtained:
[1] = biological target: T1, human FOXP2 (truncated, WT) (human, UniProt O15409 214-715); test: MITOMI
T1 sequence: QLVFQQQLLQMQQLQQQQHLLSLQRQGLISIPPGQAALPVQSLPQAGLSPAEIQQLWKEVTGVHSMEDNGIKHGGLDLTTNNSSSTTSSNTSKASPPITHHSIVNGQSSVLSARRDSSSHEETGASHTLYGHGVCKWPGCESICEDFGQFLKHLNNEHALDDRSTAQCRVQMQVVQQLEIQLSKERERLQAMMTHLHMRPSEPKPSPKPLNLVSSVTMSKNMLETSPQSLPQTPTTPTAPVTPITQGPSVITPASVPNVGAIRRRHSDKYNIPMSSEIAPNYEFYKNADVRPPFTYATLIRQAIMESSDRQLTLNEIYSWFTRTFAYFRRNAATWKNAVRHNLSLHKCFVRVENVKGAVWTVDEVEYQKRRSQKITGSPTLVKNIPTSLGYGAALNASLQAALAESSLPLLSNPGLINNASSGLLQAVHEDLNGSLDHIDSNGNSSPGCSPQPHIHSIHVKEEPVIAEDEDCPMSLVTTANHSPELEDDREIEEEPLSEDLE

[2] = biological target: T2, chimp FOXP2 (truncated, WT) (chimpanzee, UniProt Q8MJA0 215-716); test: MITOMI
T2 sequence: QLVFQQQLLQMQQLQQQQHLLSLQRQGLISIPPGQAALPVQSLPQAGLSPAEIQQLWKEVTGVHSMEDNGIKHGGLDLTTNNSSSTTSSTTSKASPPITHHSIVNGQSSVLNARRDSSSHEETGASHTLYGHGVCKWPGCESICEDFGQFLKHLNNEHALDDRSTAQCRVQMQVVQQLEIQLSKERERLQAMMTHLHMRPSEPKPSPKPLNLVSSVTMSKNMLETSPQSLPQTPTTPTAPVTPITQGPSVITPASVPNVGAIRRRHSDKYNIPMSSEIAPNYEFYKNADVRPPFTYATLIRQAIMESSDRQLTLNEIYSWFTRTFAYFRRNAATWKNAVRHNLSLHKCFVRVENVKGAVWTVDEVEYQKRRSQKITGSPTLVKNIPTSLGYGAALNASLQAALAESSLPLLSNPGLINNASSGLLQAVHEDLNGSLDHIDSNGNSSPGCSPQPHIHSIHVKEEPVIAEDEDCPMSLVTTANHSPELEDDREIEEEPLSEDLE

B1: oligonucleotide #175 (dsDNA)
DNA 1: CGCCTGTTACGGCATCAGGGCTTTGGTTTGGGCGGGCTGCTTGTTTACCAATTGTCTCCGGCGGTATGAC
DNA 2: GTCATACCGCCGGAGACAATTGGTAAACAAGCAGCCCGCCCAAACCAAAGCCCTGATGCCGTAACAGGCG
- binding result [1]: binds
- binding result [2]: binds
